In US9817004B2, “Development and use of cysteine-labeled fluorescent probes of unbound analytes” (priority 2008, dated 2017):
Numbering of substitutions follows the chain as printed. Names and notes keep the numbering of the source.

Assays:
[1] = FFAu response-profile screening of probes (FFA specificity); format: binding; settings: cysteine labeled with acrylodan at pH 7.0; FFA to which probe has improved specificity
Protocol: In some embodiments, aliquots of the probes prepared as described above are placed in multi-well plates, suitable for fluorescence measurements. Defined amounts of unbound analytes are added to each well and a fluorescence signal from the wells containing probe and analytes are compared to wells containing only the probe. The values obtained are compared with those of a ‘reference’ probe. The analytes may be fatty acids or other unbound metabolites. Preferably, the number of wells in the multiwell plate is between 1 and 1536. […] For many analytes it is important that they be added to each well in complex with a carrier molecule, for example albumin, to buffer the unbound analyte and thereby clamp its concentration to well defined values. Clamping ensures that the concentration of analyte in the aqueous phase in the well is unaffected by binding to the surfaces of the well or the probes themselves. Clamping is essential for discovery of probes because analytes have different solubilities and therefore different affinities for surfaces. Highly insoluble analytes added without proper clamping may bind to the surfaces and be unavailable for binding to the probe. In this example the probe might incorrectly give the appearance of no response to the insoluble analyte. Thus to determine the correct response profile (specificities) for each probe each analyte's concentration must be clamped.
The fluorescence intensity ratio (“R” value) for a given probe is determined. The ratio is calculated using the following formula: R=Fλ1/Fλ2 wherein, Fλ1 is the measured fluorescence intensities (intensity of the probe with the analyte present minus intensity of the analyte without probe present) at wavelength 1 and Fλ2 is the measured fluorescence intensities (intensity of the probe with the analyte present minus intensity of the analyte without probe present) at wavelength 2. Then, for a given probe, ΔR, the difference in R value between the measurement in the presence of each analyte and in the absence of each analyte, is calculated as follows: ΔR=R+analyte−R0 The ΔR value for a given probe is then compared to a reference probe, for example, ADIFAB or ADIFAB2, by ΔR/ΔRreferenee. This value is an indication of how dissimilar the new probe (derived by mutation of the template) is to the reference. By this method, probes with new and useful characteristics may be identified. Measurements of fluorescence intensities are obtained using standard techniques.
More than 40 libraries of cysteine-labeled mutant probes, using templates derived from SEQ ID NO: 5, with the number of different mutant probes in the various libraries ranging from 2000 to 2,000,000 have been generated using the methods described in U.S. Pat. No. 7,601,510, incorporated herein by reference. […]

[2] = Bilirubin binding isotherm of dual fluorophore ratio probes (I608/I525)
Text: FIGS. 7A-7B show Bilirubin binding isotherms for two dual fluorophore bilirubin ratio probes synthesized by labeling with acrylodan and Texas red.
Because such fluorescent proteins may have other valuable characteristics it would be important to be able to convert such fluorescent proteins into probes, i.e. so that they respond to analyte binding by a change in ratio. This can be accomplished by introducing a second but different fluorophore at a different site so that either the fluorescence of the second fluorophore is insensitive or responds differently to analyte binding. In addition, the fluorescence index of second fluorophore should be measured at a distinct wavelength from the first fluorophore. […] To convert this to a fluorescence ratio probe, site specific mutagenesis was used to generate a new mutein (L2P14F7-MGCFD) in which the N-terminal alanine residue of the mature L2P14F7 mutein was replaced with glycine-cysteine. Thus, the N-terminus of the mature L2P14F7-MGCFD mutein has the sequence glycine-cysteine-phenylalanine-aspartate instead of alanine-phenylalanine-aspartate, as in the L2P14F7 template. This substitution is designated in the clone name as “MGCFD” and is sometimes described as an “N-terminal MGCFD linker”. Then L2P14F7-MGCFD was reacted with Texas Red (TR) maleimide at pH 6 under which conditions only the cysteine was labeled. […]

[3] = Fluorescence emission spectra with increasing oleic acid; format: binding; settings: acrylodan labeled; 22° C., Ex=386 nm
Protocol: FIGS. 1A-1C show Fluorescence spectra with increasing oleic acid at 22° C. Ex=386 nm.
This is an example of the type of fluorescence response that is a necessary characteristic of a probe. […] This example illustrates that altering specific sites can yield effective probes.

B1: L68P3H10: 18L 23A 27C 31N 33N 55Q 72W 73T 74L 76I 106A 115E 117V 131D (protein, listed as Rattus norvegicus)
chain: AFDGTWKVDRNENYEKFLEKMGANVVCRKLNANDNLKLTITQEGNKFTVKESSNQRNIDVVFELGVDFAYSWTLGIELTGTWTMEGNKLVGKFKRVDNGKELIAVAEISGNELIETVTYEGVEAKRIFKKDRGHHHHHH
modifications: acrylodan label on cysteine; MUTAGEN (131)...(131) rat intestinal fatty acid binding protein with Glu 131 to Asp subsitition.; COOH-terminal affinity tag comprising Arg132, Gly133 and 6 histidines
notes: 18L 23A 27C 31N 33N 55Q 72W 73T 74L 76I 106A 115E 117V 131D
Q: With B1 as the molecule, how does the Specificity [1] read?
A: DHA

B2: L61P8B12: 8I 14L 18L 23L 27Y 30C 31V 53I 55W 72G 74A 78V 82V 91Y 93M 102V 106W 115W 117L 131D (protein, listed as Rattus norvegicus)
chain: AFDGTWKIDRNENLEKFLEKMGLNVVYRKCVAHDNLKLTITQEGNKFTVKESINWRNIDVVFELGVDFAYSGAAGTEVTGTVTMEGNKLVYKMKRVDNGKEVIAVWEISGNELIWTLTYEGVEAKRIFKKDRGHHHHHH
modifications: acrylodan label on cysteine; MUTAGEN (131)...(131) rat intestinal fatty acid binding protein with Glu 131 to Asp subsitition.; COOH-terminal affinity tag comprising Arg132, Gly133 and 6 histidines
notes: 8I 14L 18L 23L 27Y 30C 31V 53I 55W 72G 74A 78V 82V 91Y 93M 102V 106W 115W 117L 131D
Q: For B2, which Specificity [1] is on record?
A: POA

B3: L2P14F7: bilirubin specific fluorescent protein, the M18G,G31M mutation of SEQ ID NO 4, labeled with acrylodan at lysine 27 (protein, listed as Rattus norvegicus)
chain: AFDGTWKVDRNENYEKFGEKMGINVVKRKLMAHDNLKLTITQEGNKFTVKESSNFRNIDVVFELGVDFAYSAADGTELTGTWTMEGNKLVGKFKRVDNGKELIAVREISGNELIQTYTYEGVEAKRIFKKDRGHHHHHH
modifications: acrylodan label at lysine 27; MUTAGEN (72)...(72) rat intestinal fatty acid binding protein with alanine substitution for leucine at position 72 and Glu 131 to Asp subsitition.; COOH-terminal affinity tag comprising Arg132, Gly133 and 6 histidines
Q: For B3, which analyte specificity ([2]; labeled with acrylodan at lysine 27) is on record?
A: bilirubin specific

Q: And the Kd ([2]; single site equilibrium binding, ratio I608/I525, excited at 375 nm)?
A: ~80 nM

B4: L50BP9D5: acrylodan cysteine-labeled rI-FABP mutein; 18L 21F 23L 27C 31N 72S 73T 74A 76I 117N 131D (protein, listed as Rattus norvegicus)
chain: B1 chain with M21F, A23L, N33H, Q55F, W72S, L74A, A106R, E115Q, V117N
modifications: acrylodan label on cysteine; MUTAGEN (131)...(131) rat intestinal fatty acid binding protein with Glu 131 to Asp subsitition.; COOH-terminal affinity tag comprising Arg132, Gly133 and 6 histidines
notes: acrylodan cysteine-labeled rI-FABP mutein; 18L 21F 23L 27C 31N 72S 73T 74A 76I 117N 131D
Q: For B4, which Specificity [1] is on record?
A: PA/POA

B5: L10P7A4-L30C: acrylodan cysteine-labeled rI-FABP mutein; SEQ ID 5 mutations 14L 18L 27A 30C 31Y 72A 73L 117A 131D (protein, listed as Rattus norvegicus)
chain: B3 chain with Y14L, G18L, K27A, L30C, M31Y, A73L, Y117A
modifications: acrylodan label at C30; MUTAGEN (131)...(131) rat intestinal fatty acid binding protein with Glu 131 to Asp subsitition.; COOH-terminal affinity tag comprising Arg132, Gly133 and 6 histidines
Q: Which Specificity [1] does the source give for B5 here?
A: DHA

B6: ADIFAB: rat intestinal FABP (SEQ ID NO:2) labeled with acrylodan at lysine 27 (protein, listed as Rattus norvegicus)
chain: AFDGTWKVDRNENYEKFMEKMGINVVKRKLGAHDNLKLTITQEGNKFTVKESSNFRNIDVVFELGVDFAYSLADGTELTGTWTMEGNKLVGKFKRVDNGKELIAVREISGNELIQTYTYEGVEAKRIFKKE
modifications: acrylodan label at K27; PEPTIDE (1)...(131) wild-type rat intestinal fatty acid binding protein; …ON (1)...(1)
Q: With B6 as the molecule, how does the “fluorescence response upon FFA binding (spectral shift / ratio response)” value [3] read?
A: red shift in its fluorescence emission spectrum upon binding FFA

B7: V26C K27A: SEQ ID NO:2 with lysine 27 mutated to alanine, valine 26 to cysteine, cysteine labeled with acrylodan (protein, listed as Rattus norvegicus)
chain: B6 chain with V26C, K27A
modifications: acrylodan label on cysteine 26; PEPTIDE (1)...(131) wild-type rat intestinal fatty acid binding protein; …ON (1)...(1)
Q: For B7, which “fluorescence response upon FFA binding (spectral shift / ratio response)” value [3] is on record?
A: yields a ratio response upon FFA binding

B8: K27C: lysine 27 of SEQ ID NO:2 mutated to cysteine and the cysteine labeled with acrylodan (protein, listed as Rattus norvegicus)
chain: B6 chain with K27C
modifications: acrylodan label at C27; PEPTIDE (1)...(131) wild-type rat intestinal fatty acid binding protein; …ON (1)...(1)
Q: For B8, which “fluorescence response upon FFA binding (spectral shift / ratio response)” value [3] is on record?
A: without the necessary spectral shift to yield a ratio probe
